The record followed here is paper PMC10786891, “Massively parallel profiling of RNA-targeting CRISPR-Cas13d”.

What is called Kd is a measure of binding affinity in units of concentration. A lower Kd goes with tighter binding.

Changes are numbered by the printed parent chain. Names may count otherwise.

First the molecules themselves.
T1: EsCas13d, nuclease-dead (Eubacterium siraeum, UniProt B0MS50, R295A;H300A;R849A;H854A)
T1 sequence: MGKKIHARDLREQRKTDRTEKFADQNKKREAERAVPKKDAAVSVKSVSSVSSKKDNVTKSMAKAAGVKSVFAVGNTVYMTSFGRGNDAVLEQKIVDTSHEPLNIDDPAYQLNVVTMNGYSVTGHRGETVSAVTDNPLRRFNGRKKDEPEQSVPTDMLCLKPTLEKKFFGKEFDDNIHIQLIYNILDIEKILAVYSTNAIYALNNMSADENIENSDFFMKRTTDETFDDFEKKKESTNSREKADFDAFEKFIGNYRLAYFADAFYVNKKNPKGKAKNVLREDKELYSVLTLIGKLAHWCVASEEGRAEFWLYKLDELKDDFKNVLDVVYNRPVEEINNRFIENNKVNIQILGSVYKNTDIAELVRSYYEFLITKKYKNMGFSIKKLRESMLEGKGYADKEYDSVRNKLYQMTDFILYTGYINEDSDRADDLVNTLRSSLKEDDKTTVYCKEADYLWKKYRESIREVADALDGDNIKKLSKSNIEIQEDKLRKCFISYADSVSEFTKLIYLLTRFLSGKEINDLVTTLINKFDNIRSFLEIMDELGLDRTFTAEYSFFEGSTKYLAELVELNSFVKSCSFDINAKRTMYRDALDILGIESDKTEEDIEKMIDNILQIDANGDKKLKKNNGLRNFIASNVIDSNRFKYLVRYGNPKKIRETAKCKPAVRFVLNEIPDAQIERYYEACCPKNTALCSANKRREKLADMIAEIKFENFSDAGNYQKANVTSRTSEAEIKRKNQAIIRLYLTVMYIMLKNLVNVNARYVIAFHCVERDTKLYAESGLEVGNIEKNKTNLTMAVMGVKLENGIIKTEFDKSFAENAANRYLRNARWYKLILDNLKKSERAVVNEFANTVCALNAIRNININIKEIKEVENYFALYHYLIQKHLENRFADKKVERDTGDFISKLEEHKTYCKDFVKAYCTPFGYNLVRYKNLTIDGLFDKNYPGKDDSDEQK

B1: target 1 A9G,U10C (mixed)
RNA 1: CACCCGUGCAAAAAUGCAGGGGUCUAAAACUGAGCGGAUAACCUCUCUAUGG
RNA 2: GGGAAUGGAUCCACAUCUACGAAUUCGUACCAUAGAGAGGUCGUCCGCUCACCGAGAUCGGAAGAGCACACGU
B2: target 1 C2U,G12A (mixed)
RNA 1: B1 RNA 1
RNA 2: B1 RNA 2 with G40A, C42U, G43A, C50U
B3: target 1 insC 3' of 16,insC 3' of 14 (mixed)
RNA 1: B1 RNA 1
RNA 2: GGGAAUGGAUCCACAUCUACGAAUUCGUACCAUAGACGACGGUUAUCCGCUCACCGAGAUCGGAAGAGCACACGU
B4: target 3 G4C,U7A (mixed)
RNA 1: CACCCGUGCAAAAUUGCAGGGGUCUAAAACGACCUGAAUAUUUCAGAUCAAA
RNA 2: GGGAAUGGAUCCACAUCUACGAAUUCGUUUUUGAUCUGAAAUAUACACGUCUGCAGAUCGGAAGAGCACACGU
B5: target 3 insA 3' of 10,insA 3' of 7 (mixed)
RNA 1: B4 RNA 1
RNA 2: GGGAAUGGAUCCACAUCUACGAAUUCGUUUUUGAUCUGAAAUAAUUACAGGUCUGCAGAUCGGAAGAGCACACGU
B6: target 3 G19U,U22G (mixed)
RNA 1: B4 RNA 1
RNA 2: B4 RNA 2 with U30G, G33U, A45U, C48G
B7: target 3 G4U,U21A (mixed)
RNA 1: B4 RNA 1
RNA 2: B4 RNA 2 with U31A, A45U, C48U
B8: target 3 A5U,A11G (mixed)
RNA 1: B4 RNA 1
RNA 2: B4 RNA 2 with A41G, A45U, A47U, C48G
B9: target 3 insC 3' of 5,insG 3' of 5 (mixed)
RNA 1: B4 RNA 1
RNA 2: B5 RNA 2 with A44U, U46C, A49G
B10: target 3 insA 3' of 7,insG 3' of 2 (mixed)
RNA 1: B4 RNA 1
RNA 2: B5 RNA 2 with A44U, U46A, A47C, C48A, A49G, G51U, U52G
B11: target 3 C1A,G14U (mixed)
RNA 1: B4 RNA 1
RNA 2: B4 RNA 2 with G38U, A45U, C48G, C51A
B12: target 3 C6U (mixed)
RNA 1: B4 RNA 1
RNA 2: B4 RNA 2 with A45U, C46U, C48G
B13: target 3 insU 3' of 5,insG 3' of 2 (mixed)
RNA 1: B4 RNA 1
RNA 2: B5 RNA 2 with A44U, U46C, C48U, A49G, G51U, U52G
B14: target 3 U2A,U20C (mixed)
RNA 1: B4 RNA 1
RNA 2: B4 RNA 2 with U32C, A45U, C48G, U50A
B15: target 3 del6,del8 (mixed)
RNA 1: B4 RNA 1
RNA 2: GGGAAUGGAUCCACAUCUACGAAUUCGUUUUUGAUCUGAAAUAUAGGUCUGCAGAUCGGAAGAGCACACGU
B16: target 3 del1,del2 (mixed)
RNA 1: B4 RNA 1
RNA 2: B15 RNA 2 with A45U, G46C, G47A, U48G, C49G
B17: target 3 insC 3' of 4,insC 3' of 2 (mixed)
RNA 1: B4 RNA 1
RNA 2: B5 RNA 2 with A44U, U46C, C48G, A49C, G51U, U52C
B18: target 3 insA 3' of 6,insU 3' of 4 (mixed)
RNA 1: B4 RNA 1
RNA 2: B5 RNA 2 with A44U, U46C, C48A, A49G, G50U
B19: target 3 insG 3' of 6,insG 3' of 6 (mixed)
RNA 1: B4 RNA 1
RNA 2: B5 RNA 2 with A44U, U46C, A47G, C48G
B20: target 3 insU 3' of 22,insA 3' of 6 (mixed)
RNA 1: B4 RNA 1
RNA 2: GGGAAUGGAUCCACAUCUACGAAUUCGUUUUUUGAUCUGAAAUAUUCAAGGUCUGCAGAUCGGAAGAGCACACGU
B21: target 3 insC 3' of 5,insA 3' of 2 (mixed)
RNA 1: B4 RNA 1
RNA 2: B5 RNA 2 with A44U, U46C, A49G, G51U, U52A
B22: target 3 insG 3' of 5,insC 3' of 5 (mixed)
RNA 1: B4 RNA 1
RNA 2: B5 RNA 2 with A44U, U46C, C48G, A49C
B23: target 3 insC 3' of 5,insU 3' of 1 (mixed)
RNA 1: B4 RNA 1
RNA 2: B5 RNA 2 with A44U, U46C, A49G, G51U, U52C, C53U
B24: target 3 del1,del14 (mixed)
RNA 1: B4 RNA 1
RNA 2: B15 RNA 2 with G38A, A41U, U42A, A43U, A45C, G46A, U48G, C49U
B25: target 3 insC 3' of 4,insA 3' of 1 (mixed)
RNA 1: B4 RNA 1
RNA 2: B5 RNA 2 with A44U, U46C, C48G, A49C, G51U, U52C, C53A
B26: target 3 insU 3' of 6,insC 3' of 3 (mixed)
RNA 1: B4 RNA 1
RNA 2: B5 RNA 2 with A44U, U46C, A47U, C48A, A49G, G51C
B27: target 3 C6A,A11C (mixed)
RNA 1: B4 RNA 1
RNA 2: B4 RNA 2 with A41C, A45U, C46A, C48G
B28: target 3 A5G,A11G (mixed)
RNA 1: B4 RNA 1
RNA 2: B4 RNA 2 with A41G, A45U, A47G, C48G
B29: target 3 insC 3' of 22,insA 3' of 2 (mixed)
RNA 1: B4 RNA 1
RNA 2: B20 RNA 2 with U31C, A49G, G51U, U52A
B30: target 3 insC 3' of 7,insA 3' of 6 (mixed)
RNA 1: B4 RNA 1
RNA 2: B5 RNA 2 with A44U, U46C, A47C, C48A
B31: target 3 insA 3' of 3,insC 3' of 2 (mixed)
RNA 1: B4 RNA 1
RNA 2: B5 RNA 2 with A44U, U46C, C48G, A49G, G50A, G51U, U52C

This data set concerns the target T1, EsCas13d, nuclease-dead. The experiment in a line: crRNA (strand 1, pre-loaded); Mg2+; 40 mM Tris-HCl pH 7.5, 150 mM NaCl, 6 mM MgCl2, 1 mM DTT, 0.1% Tween-20, 0.2 mg/ml BSA; 25 C; 10 min per concentration, then washed. The note with it: tags: His6-TwinStrep-SUMO cleaved; N-terminal SNAP kept (SNAP-Surface 488); label: 3' end held by stalled T7 RNA polymerase.
Take B1: the affinity, expressed as Kd, was 27.2 ± 1.4 nM.

In the case of B2, binding was put at a Kd of 4.5 ± 0.14 nM. This Kd is about 6-fold lower than that of the molecule before.

For the molecule B3, the dissociation constant Kd is 75 ± 19 nM.

B4 displayed a Kd of 27.6 ± 3.05 nM.

In turn, B5 returned a dissociation constant (Kd) of 52 ± 8 nM.

B6 displayed a Kd of 108 ± 15 nM.

In turn, B7 returned an equilibrium dissociation constant (Kd) of 20.6 ± 2.15 nM.

B8 came in with an equilibrium dissociation constant (Kd) of 100 ± 45 nM.

With B9, the Kd is 5.57 ± 0.52 nM.

Take B10: the Kd stood at 28.2 ± 4.15 nM.

Molecule B11 registered a dissociation constant (Kd) of 79 ± 30.5 nM.

B12 showed a dissociation constant Kd of 13.2 ± 1.05 nM.

The molecule B13 returned a Kd of 6.95 ± 1 nM.

On to B14, for which binding was put at a Kd of 74.5 ± 24 nM.

In turn, B15 registered a Kd of 70.5 ± 11 nM.

As to B16, the Kd was found to be 44.5 ± 2.55 nM.

B17: the dissociation constant (Kd) stood at 73 ± 24 nM.

B18 returned a Kd of 2.25 ± 0.23 nM. This Kd is about 32-fold lower than that of the molecule before.

In turn, B19 came in with a Kd of 23.6 ± 3.2 nM.

B20 gave a Kd of 7.2 ± 0.55 nM.

The molecule B21 registered an equilibrium dissociation constant (Kd) of 15.8 ± 1.6 nM.

Consider B22, for which binding was put at a Kd of 32.7 ± 4.05 nM.

On to B23, for which the dissociation constant (Kd) worked out at 10.8 ± 1.25 nM.

B24 showed a Kd of 110 ± 55 nM.

As for B25, binding was put at a Kd of 69.5 ± 28.5 nM.

B26 gave an equilibrium dissociation constant (Kd) of 28.6 ± 2.95 nM. Compared with the last molecule, the Kd is about 2.4-fold lower.

Molecule B27 came in with a Kd of 45.2 ± 11.2 nM.

As to B28, the affinity, expressed as Kd, was 73.5 ± 28.5 nM.

Molecule B29 had a Kd of 59 ± 10 nM.

The molecule B30 came in with a Kd of 76 ± 14 nM.

The molecule B31 showed a Kd of 120 ± 50 nM.
